Measured values: publication PMC3347318

Target: Sudan virus Boniface (SUDV-Bon) glycoprotein GP1,2, mucin-like domain and transmembrane domain delet (Sudan virus, variant Boniface) (UniProt Q66814)
Assay: crystal structure

Sudan virus Boniface (SUDV-Bon) glycoprotein GP1,2, mucin-like domain and transmembrane domain delet (from UniProt Q66814) (complex)
stoichiometry N: 3
